In patent US12419964B2, “Antibody drug conjugate (ADC) targeting Nectin 4 and comprising an exatecan payload” (ELI LILLY AND COMPANY, priority 2023, dated 2025):

What was measured:
Nectin-4 = target: T1, Nectin-4 (Homo sapiens, UniProt Q96NY8); details: described in WO2022/207822 and WO2022/207825; cited from earlier work
T1 construct: endogenous in cells
T1 sequence (Q96NY8 32-510): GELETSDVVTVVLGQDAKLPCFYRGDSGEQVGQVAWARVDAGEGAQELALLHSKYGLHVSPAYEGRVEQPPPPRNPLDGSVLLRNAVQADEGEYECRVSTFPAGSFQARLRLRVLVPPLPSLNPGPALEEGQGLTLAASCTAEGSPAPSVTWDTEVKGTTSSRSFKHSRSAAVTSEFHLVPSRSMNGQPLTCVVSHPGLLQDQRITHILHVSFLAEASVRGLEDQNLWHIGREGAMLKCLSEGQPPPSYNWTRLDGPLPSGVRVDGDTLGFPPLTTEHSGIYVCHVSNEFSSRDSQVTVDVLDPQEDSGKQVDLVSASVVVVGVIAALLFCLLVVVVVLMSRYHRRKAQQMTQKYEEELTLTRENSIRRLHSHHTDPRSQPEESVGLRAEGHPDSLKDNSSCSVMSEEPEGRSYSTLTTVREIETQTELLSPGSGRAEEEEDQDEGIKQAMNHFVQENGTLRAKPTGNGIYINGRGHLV

[1] = Hydrophobic interaction chromatography (HIC) versus naked 15A7.5 mAb; type: physicochemical; details: compared with naked 15A7.5 mAb (FIG. 2)
Protocol: As determined by SEC-HPLC, less than 5% material was aggregated. […] (See FIG. 2 and corresponding Brief Description). […] (See FIG. 3 and corresponding Brief Description). In vitro cytotoxic activity was assessed for the HCT-116-2G10 clone expressing human nectin-4. (See FIG. 4 and corresponding Brief Description).

B1: 15A7.5: anti-Nectin-4 monoclonal antibody described in WO2022/207822 and WO2022/207825 (antibody)
heavy: EVQLVESGGGLVQPGGSLRLSCAASGFTFSNYGMAWVRQAPGKGLEWVSFISNLAYGINYADTVTGRFTISRDNAKNSLYLQMNSLRAEDTAVYYCARGARATGWFAYWGQGTLVTVSSASTKGPSVFPLAPSSKSTSGGTAALGCLVKDYFPEPVTVSWNSGALTSGVHTFPAVLQSSGLYSLSSVVTVPSSSLGTQTYICNVNHKPSNTKVDKRVEPKSCDKTHTCPPCPAPEFEGGPSVFLFPPKPKDTLMISRTPEVTCVVVDVSHEDPEVKFNWYVDGVEVHNAKTKPREEQYNSTYRVVSVLTVLHQDWLNGKEYKCKVSNKALPASIEKTISKAKGQPREPQVYTLPPSREEMTKNQVSLTCLVKGFYPSDIAVEWESNGQPENNYKTTPPVLDSDGSFFLYSKLTVDKSRWQQGNVFSCSVMHEALHNHYTQKSLSLSPGK
light: DIQMTQSPSSLSASVGDRVTITCKASQNVDTHVAWYQQKPGKAPKALIYSASYRYSGVPSRFSGSGSGTDFTLTISSLQPEDFATYYCQQYNSYPLTFGGGTKVEIKRTVAAPSVFIFPPSDEQLKSGTASVVCLLNNFYPREAKVQWKVDNALQSGNSQESVTEQDSKDSTYSLSSTLTLSKADYEKHKVYACEVTHQGLSSPVTKSFNRGEC
selectivity of affinity, tumor cells versus keratinocytes (Nectin-4): selective affinity for tumor cells versus keratinocytes

B2: ETx-22: ADC of H1L2_15A7.5 anti-Nectin-4 mAb (HC SEQ ID NO:5, LC SEQ ID NO:6) conjugated via cysteines to exatecan Linker-Payload of Formula (L-P′) (conjugate)
heavy: B1 heavy
light: B1 light
modifications: exatecan linker-payload conjugated via cysteines
hydrophilicity by HIC profile [1]: high homogenous hydrophilicity
